± gives the half width of the 95% confidence interval.
How the values were obtained:
[1] = folding stability dG unfold from trypsin proteolysis; higher = more stable
Method in brief: (§1)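 Bayesian fitting of sequencing counts gave K50 for each design. Unfolding free energy followed by setting this against a sequence-predicted unfolded-state K50 and a shared folded-state K50, either per protease or with trypsin and chymotrypsin combined. The designs, under 80 residues and lacking cysteine, were digested in a PA-tagged cDNA display format at 11 threefold-diluted protease concentrations and without protease, and only those with AlphaFold2 dimer inter-PAE above 15 were kept.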

[2] = folding stability dG unfold (combined trypsin and chymotrypsin); higher = more stable
Method in brief: as §1

[3] = folding stability dG unfold from chymotrypsin proteolysis; higher = more stable
Method in brief: as §1

Row | Sequence | folding stability dG unfold [1] [kcal/mol] | folding stability dG unfold [2] [kcal/mol] | folding stability dG unfold [3] [kcal/mol]
1 | SAGGSAPWVTLPIIIMFDSPEQAVEEVKPIFQELFGIKDVNVEEEPMPNGMVFVPIEITIPAENMKSAGGSA [r15_173_TrROS] | 0.547 ± 0.061 | 1.09 ± 0.092 | 1.38 ± 0.07
2 | SAGGSARRPFNVEAWYPPGRSADNVADELASHFFGIKIDDVEVEPNPDNGYYKIEATIRIPPDWLKSAGGSA [r15_930_TrROS] | 0.0136 ± 0.36 | 0.33 ± 0.18 | 0.528 ± 0.29
3 | SAGGSARVIRNPDYGMWIRLQPTDGGYTVQIEMYRPDPEDGKPKRRPMTHTIPPDDLPPEIRDLLKSAGGSA [r15_703_TrROS] | 0.442 ± 0.1 | 0.573 ± 0.07 | 0.515 ± 0.12
4 | SAGGSARYYFIVIEIWQPGKPVKFIIVVPKEDPKKFESEINEMFPGYNIDIKVIPFPSPEEAEDLFSAGGSA [r15_889_TrROS] | 2.26 ± 0.1 | 2.74 ± 0.17 | 2.97 ± 0.088
5 | SAGGSASDVVPIDKKITITLPGGEKYEVTEMTVLPDGTVKMKIIKKSPNGNPTEEEITLSPEELVDLSAGGS [r16_498_JUSTAS] | 2.26 ± 0.083 | 2.47 ± 0.058 | 2.594 ± 0.021
6 | SAGGSASGYYTTTTVEIEPEGDTLTTVTTTTLGVPVTFDPVNNTLTLNLPPDQSLVTTTTVTEVAASAGGSA [r15_1040_JUSTAS] | 1.02 ± 0.04 | 0.976 ± 0.055 | 0.857 ± 0.033
7 | SAGGSASLESEDVEEVSTSTSVVPLPDGGTATVTTTTYRHKEPGTLVTRTTTTFPGGATTTTVTLLSAGGSA [r15_188_JUSTAS] | 1.69 ± 0.039 | 1.91 ± 0.025 | 2.04 ± 0.022
8 | SAGGSASLFIPVPPTDTSPVTVEITIGNSKYRATLTVDPNNPNLMTVTLTDPNGGATTTETVPLLDSAGGSA [r15_328_JUSTAS] | 1.8 ± 0.034 | 1.79 ± 0.069 | 1.78 ± 0.031
9 | SAGGSASMKIRVYTISLYRPDGESVRDVPIVVPENEPDVDPEALAKAIADELGLVKVEISEEIVPLSAGGSA [r15_333_JUSTAS] | 0.589 ± 0.097 | 1.14 ± 0.18 | 1.4 ± 0.31
10 | SAGGSASMPLTLTFTTPTRTFTVTIPPSKVSSVTVEEKGPTITVTVEAPDSTITINITPSSVTISASAGGSA [r15_598_JUSTAS] | 2.98 ± 0.13 | 3.8 ± 0.12 | 4.19 ± 0.13
11 | SAGGSASMTIVPVKSEEELEAYIKTKNPKVFLLPLPDGTELVVKVNVDDPSKIEKVSLSKPEEILLSAGGSA [r15_11_JUSTAS] | 0.228 ± 0.12 | 0.622 ± 0.25 | 0.664 ± 0.16
12 | SAGGSASMTTKRPVSPELRAKVEAAAAAGDPAITVTLPVTLPDGRTVTLTVTKDPTADTFTATVVSSAGGSA [r15_700_JUSTAS] | 0.0823 ± 0.33 | 0.221 ± 0.22 | 0.367 ± 0.3
13 | SAGGSASNIKTEEKEYPDGKVVVKYSSDPNITYVYYYPPGGLELVETLDSNGNVISKKLVPKGKLISAGGSA [r15_419_JUSTAS] | 0.607 ± 0.049 | 0.832 ± 0.06 | 0.959 ± 0.097
14 | SAGGSASPAVSSEEEVEALVEELRKKGYEVLSVERTEIPGEDVTDYTIPIRDPSNGKLSTLTLTAGSAGGSA [r15_123_JUSTAS] | 0.508 ± 0.037 | 0.585 ± 0.12 | 0.538 ± 0.15
15 | SAGGSASSMPVTLTLLLTRPDGTPLTLPFEAETLEEAIERGTALAQELIAELGDPNMKITGLEVVPSAGGSA [r15_698_JUSTAS] | 0.904 ± 0.067 | 1.22 ± 0.1 | 1.44 ± 0.092
16 | SAGGSASSSLEVEVTAESPDPETGELRVTAVITTTYFDPSTGSTSTTTTTLTLTPEELAALVAALSSAGGSA [r2_357_JUSTAS] | 3.92 ± 0.071 | 4.332 ± 0.043 | 4.35 ± 0.049
17 | SAGGSASTVTRTRTIPGSGLTVEITETPLPDGTYSYTVTFYAPDSALKTTPKTAAPDELPEEELLSSAGGSA [r15_147_JUSTAS] | 0.35 ± 0.049 | 1.1 ± 0.06 | 1.48 ± 0.042
18 | SAGGSASVEIIFDPNKPTVTIYVPGPVDPNEPITLTLPGGPSLTITEIEVEKIGKEYVVKAKVTKLSAGGSA [r15_838_JUSTAS] | 1.14 ± 0.04 | 1.8 ± 0.051 | 2.12 ± 0.03

Reference: the supplement of paper PMC12764529
